Reference: paper PMC4329502

Key:
[1] = target: HER2 antigen (UniProt P04626); experiment: ELISA
[2] = target: EGFR1 antigen (Homo sapiens (assumed)) (UniProt P00533); experiment: ELISA

Row | Kd [1] [nM] | Kd [2] [nM] | Substance
1 | 47.9 | – | ZHER2:4 affibody (designed binder)
2 | – | 3.5 | anti-EGFR1 nanobody 7D12 (VHH)
